Reference: paper doi:10.1101/851261
pIC50: −log10 of the molar value.

What was measured:
[1] = target: AjKissR2 (Apostichopus japonicus); assay: flow cytometry on cells
[2] = target: AjKissR1 (Apostichopus japonicus); assay: flow cytometry on cells

A pIC50 [1] of 7.02 was found for AjKiss1a (peptide) in this work.

A pIC50 [2] of 6.45 was found for AjKiss1b (peptide) in this work.
